Reference: article PMC11417369, “DNA sequence and chromatin differentiate sequence-specific transcription factor binding in the human malaria parasite Plasmodium falciparum”

Molecular target: T1, AP2-G D1 (Plasmodium falciparum, UniProt Q8I5I9 2123-2245)
T1 sequence: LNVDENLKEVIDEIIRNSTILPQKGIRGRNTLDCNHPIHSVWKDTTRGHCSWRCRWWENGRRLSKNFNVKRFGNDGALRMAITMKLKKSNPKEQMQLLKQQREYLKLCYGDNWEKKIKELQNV
Assay: gcPBM; about 25 ug protein; PBS, 1% milk, 0.2 mg/ml BSA, salmon testes DNA, 0.03% Triton X-100
Details: tags: N-terminal GST (pGEX-4T-1), kept; label: surface-attached array probe

B1: XGTACX_negctrl_site180 (dsDNA)
DNA 1: TACATATAAATATATAAATATAAATAAATAAATAAA
DNA 2: TTTATTTATTTATTTATATTTATATATTTATATGTA
- binding signal: 9.74 ln median PBM intensity, better of two orientations

B2: XGTACX_negctrl_site47 (dsDNA)
DNA 1: ATATATATATAATTATATAAAATATATCATATGTTA
DNA 2: TAACATATGATATATTTTATATAATTATATATATAT
- binding signal: 9.64 ln median PBM intensity, better of two orientations

B3: XGTACX_negctrl_site555 (dsDNA)
DNA 1: TTCTTTATTTATCATTATAAGAAGAGTTGATTTGTT
DNA 2: AACAAATCAACTCTTCTTATAATGATAAATAAAGAA
- binding signal: 9.71 ln median PBM intensity, better of two orientations

B4: XGTACX_negctrl_site418 (dsDNA)
DNA 1: TTTTTTTTTTTTTTTTCTTTTTTTTTTTTAAATAAG
DNA 2: CTTATTTAAAAAAAAAAAAGAAAAAAAAAAAAAAAA
- binding signal: 9.64 ln median PBM intensity, better of two orientations

B5: XGTACX_negctrl_site278 (dsDNA)
DNA 1: TAATATTTCTTATTTTATATTTGTATATGAATGGAT
DNA 2: ATCCATTCATATACAAATATAAAATAAGAAATATTA
- binding signal: 9.65 ln median PBM intensity, better of two orientations

B6: XGTACX_negctrl_site427 (dsDNA)
DNA 1: TTCTATATTTTAGCTGATAATATTATGAGCTTCACT
DNA 2: AGTGAAGCTCATAATATTATCAGCTAAAATATAGAA
- binding signal: 9.67 ln median PBM intensity, better of two orientations

B7: XGTACX_negctrl_site426 (dsDNA)
DNA 1: TATTAAAATTAAAAAAAAAAAAAAAAGCAATAAAAA
DNA 2: TTTTTATTGCTTTTTTTTTTTTTTTTAATTTTAATA
- binding signal: 9.73 ln median PBM intensity, better of two orientations

B8: XGTACX_negctrl_site80 (dsDNA)
DNA 1: AAACATTTATCAATGAATCTTTTAATAAGTGTAAAG
DNA 2: CTTTACACTTATTAAAAGATTCATTGATAAATGTTT
- binding signal: 9.73 ln median PBM intensity, better of two orientations

B9: XGTACX_negctrl_site118 (dsDNA)
DNA 1: AAGGTATACACTGCTTTATCAAGTTTAACTCTTTTT
DNA 2: AAAAAGAGTTAAACTTGATAAAGCAGTGTATACCTT
- binding signal: 9.62 ln median PBM intensity, better of two orientations

B10: XGTACX_negctrl_site355 (dsDNA)
DNA 1: AAAGGGGAAAATATTATACATATAATAAATCCGTAT
DNA 2: ATACGGATTTATTATATGTATAATATTTTCCCCTTT
- binding signal: 9.67 ln median PBM intensity, better of two orientations

B11: XGTACX_negctrl_site60 (dsDNA)
DNA 1: TACAGTTTTTCTTTGAATTTATCAAGTTTTTTTCCC
DNA 2: GGGAAAAAAACTTGATAAATTCAAAGAAAAACTGTA
- binding signal: 9.65 ln median PBM intensity, better of two orientations

B12: XGTACX_negctrl_site72 (dsDNA)
DNA 1: CTTTCAAAATTATTTATAGTATCTCATATTTTAGTA
DNA 2: TACTAAAATATGAGATACTATAAATAATTTTGAAAG
- binding signal: 9.65 ln median PBM intensity, better of two orientations

B13: XGTACX_negctrl_site102 (dsDNA)
DNA 1: TTCTTTTTATTTATATTTTCCCCTCTCTATAGCTAT
DNA 2: ATAGCTATAGAGAGGGGAAAATATAAATAAAAAGAA
- binding signal: 9.73 ln median PBM intensity, better of two orientations

B14: XGTACX_negctrl_site76 (dsDNA)
DNA 1: TTATTATTTATTTTTTATTATTATTATTTTTTTTTA
DNA 2: TAAAAAAAAATAATAATAATAAAAAATAAATAATAA
- binding signal: 9.62 ln median PBM intensity, better of two orientations

B15: XGTACX_negctrl_site587 (dsDNA)
DNA 1: TATGAAAAAAAAAAAAAAAAAAAAAAAAAAAAAAAA
DNA 2: TTTTTTTTTTTTTTTTTTTTTTTTTTTTTTTTCATA
- binding signal: 9.69 ln median PBM intensity, better of two orientations

B16: XGTACX_negctrl_site240 (dsDNA)
DNA 1: TTTTTTATAAAATTTTTTTTTTAAAATATTAAAACT
DNA 2: AGTTTTAATATTTTAAAAAAAAAATTTTATAAAAAA
- binding signal: 9.66 ln median PBM intensity, better of two orientations

B17: XGTACX_negctrl_site513 (dsDNA)
DNA 1: GAAAAAAAAAAAAAAAGAAAATTCATATTTTTAATA
DNA 2: TATTAAAAATATGAATTTTCTTTTTTTTTTTTTTTC
- binding signal: 9.66 ln median PBM intensity, better of two orientations

B18: XGTACX_negctrl_site480 (dsDNA)
DNA 1: TTGATAAAAAAAAAAAAATAAAAAAAAAATAAAAAA
DNA 2: TTTTTTATTTTTTTTTTATTTTTTTTTTTTTATCAA
- binding signal: 9.72 ln median PBM intensity, better of two orientations

B19: XGTACX_negctrl_site599 (dsDNA)
DNA 1: TTTTTGTAAACCTACTTCATAATTATTTATATCTAT
DNA 2: ATAGATATAAATAATTATGAAGTAGGTTTACAAAAA
- binding signal: 9.69 ln median PBM intensity, better of two orientations

B20: XGTACX_negctrl_site347 (dsDNA)
DNA 1: AAAATGGAACTAGGAATAATATAAGAAGATAAAAGG
DNA 2: CCTTTTATCTTCTTATATTATTCCTAGTTCCATTTT
- binding signal: 9.72 ln median PBM intensity, better of two orientations

B21: XGTACX_negctrl_site542 (dsDNA)
DNA 1: TACATTTCATTGTAATCATAAAAAATAAAGAAAAAA
DNA 2: TTTTTTCTTTATTTTTTATGATTACAATGAAATGTA
- binding signal: 9.7 ln median PBM intensity, better of two orientations

B22: XGTACX_negctrl_site87 (dsDNA)
DNA 1: GCATATTTTCCCTGTGAATAAAGTTTTTTTTTTTAT
DNA 2: ATAAAAAAAAAAACTTTATTCACAGGGAAAATATGC
- binding signal: 9.67 ln median PBM intensity, better of two orientations

B23: XGTACX_negctrl_site374 (dsDNA)
DNA 1: AATAAACATTATTTTCGTATTCCAATTCTTTTTTTT
DNA 2: AAAAAAAAGAATTGGAATACGAAAATAATGTTTATT
- binding signal: 9.74 ln median PBM intensity, better of two orientations

B24: XGTACX_negctrl_site69 (dsDNA)
DNA 1: AGAGTAGGAAATGGAAAAATAAAATAAATAAATAAA
DNA 2: TTTATTTATTTATTTTATTTTTCCATTTCCTACTCT
- binding signal: 9.72 ln median PBM intensity, better of two orientations

B25: XGTACX_negctrl_site308 (dsDNA)
DNA 1: TACATAATTTAAAATTTTATAAGTTGTAATTCGTTT
DNA 2: AAACGAATTACAACTTATAAAATTTTAAATTATGTA
- binding signal: 9.65 ln median PBM intensity, better of two orientations

B26: XGTACX_negctrl_site1 (dsDNA)
DNA 1: TACAAACAAACACATAGCAATATATGTTATCAAAAA
DNA 2: TTTTTGATAACATATATTGCTATGTGTTTGTTTGTA
- binding signal: 9.63 ln median PBM intensity, better of two orientations

B27: XGTACX_negctrl_site221 (dsDNA)
DNA 1: TATTTTATAAATACAAGTAAAATTAAATATATAATA
DNA 2: TATTATATATTTAATTTTACTTGTATTTATAAAATA
- binding signal: 9.64 ln median PBM intensity, better of two orientations

B28: XGTACX_negctrl_site159 (dsDNA)
DNA 1: TACAAAAAGAATGAAAAATATATAATAAAAATAAAA
DNA 2: TTTTATTTTTATTATATATTTTTCATTCTTTTTGTA
- binding signal: 9.63 ln median PBM intensity, better of two orientations

B29: XGTACX_negctrl_site380 (dsDNA)
DNA 1: TTTTTTAAAAGATATATAATATGTATGAATATTCAA
DNA 2: TTGAATATTCATACATATTATATATCTTTTAAAAAA
- binding signal: 9.71 ln median PBM intensity, better of two orientations

B30: XGTACX_negctrl_site420 (dsDNA)
DNA 1: AAAAAATAGAATATAAAAATAAAGGAATTAAATTAA
DNA 2: TTAATTTAATTCCTTTATTTTTATATTCTATTTTTT
- binding signal: 9.64 ln median PBM intensity, better of two orientations

B31: XGTACX_negctrl_site314 (dsDNA)
DNA 1: TAATTTATAAGGTATAACAACAATTGCATCTATCAC
DNA 2: GTGATAGATGCAATTGTTGTTATACCTTATAAATTA
- binding signal: 9.69 ln median PBM intensity, better of two orientations

B32: XGTACX_negctrl_site373 (dsDNA)
DNA 1: ATTTATAATGATTTTTTTAGTAATCTTGTTATTTTT
DNA 2: AAAAATAACAAGATTACTAAAAAAATCATTATAAAT
- binding signal: 9.69 ln median PBM intensity, better of two orientations
